The source of these data is patent US20210292393A1 (published 2021).

To fix the notation:
B1: antibody 533 (antibody, V domains shown)
VH: GVQLVESGGVVVQPGGSLRLSCAASGFSFDDYTMHWVRQAPGKGLEWVSLVSWDGGTTYYTDSVKGRFTISRDNSKNSLYLQMNSLRTEDTALYFCAKDSGRIVPAATFDYWGQGTLVTVSS
VL: DIQMTQSSSSLSASVGDRVTITCRASQDISNYLAWFQQKPGKAPKSLIYAASSLQSGVPSKFSGSGSGTDFTLTISSLQPEDFATYYCQQYYTYPLTFGGGTKVEIK
B2: antibody 537 (antibody, V domains shown)
VH: QVQLQQWGAGLLKPSETLSLTCAVYGGSFSGYYWSWIRQPPGKGLEWIGEINHSGSTNYNPSLKSRVTISVDTSKNQFSLKLSSVTAADTAVYYCARGLYYDMGGGFDYWGQGTLVTVSS
VL: not shown
B3: antibody 548 (antibody, V domains shown)
VH: QVQLVESGGGVVQPGRSLRLSCAASGFTFSSYAMHWVRQAPGKGLEWVAVISYDGSNKYYADSVKGRFTISRDNSKNTLYLQMNNLRAEDTAVYYCAKSGSGSYLSAFDIWGQGTMVTVSS
VL: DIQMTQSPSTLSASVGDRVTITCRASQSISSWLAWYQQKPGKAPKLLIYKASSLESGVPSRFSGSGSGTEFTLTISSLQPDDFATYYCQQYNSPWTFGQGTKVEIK
B4: antibody 543 (antibody, V domains shown)
VH: EVQLVESGGGLVQPGRSLRLSCAASGFTFHDYAMHWVRQAPGKGLEWVSGISWNSGSIGYADSVKGRFTISRDNAKNSLYLQMNSLRAEDTALYYCAKDTFGSSSWYRGDSYYYYGMDVWGQGTTVTVSS
VL: QSALTQPASVSGSPGQSITISCTGTSSDVGGYNYVSWYQQHPGKAPKLMIYEVSNRPSGVSNRFSGSKSGNTASLTISGLQAEDEADYYCSSYTSSSTQRYVVFGGGTKLTVL
B5: antibody 536 (antibody, V domains shown)
VH: QVQLVESGGGVVQPGRSLRLSCAASGFTFSSYVMHWVRQAPGKGLEWVALISYDGSNKYYADSVKGRFTISRDNSKNTLYLQMNSLRAEDTAVYYCARGGHIRVGRYFDWLISYFDYWGQGTLVTVSS
VL: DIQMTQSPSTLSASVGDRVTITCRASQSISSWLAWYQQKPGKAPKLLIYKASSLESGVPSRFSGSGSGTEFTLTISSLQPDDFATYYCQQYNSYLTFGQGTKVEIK
B6: antibody 545 (antibody, V domains shown)
VH: QVQLVQSGSELKKPGASVKVSCKASGYTFTSYAMNWVRQAPGQGLEWMGWINTNTGNPTYAQGFTGRFVFSLDTSVSTAYLQISVLKAEDTGVYYCARDHELPNSSSWFGHFEYWGQGTLVTVSS
VL: SYELTQPPSVSVSPGQTARITCSGDALPKQYAYWYQQKAGQAPVLVIYKDSERRSGIPERFSGSSSGTTVTLTISGVQAEDEADYYCQSADSSGTSVVFGGGTKLTVL
B7: antibody 547 (antibody, V domains shown)
VH: QVHLVESGGGVVQPGRSLRLSCAASGFALSSYAMHWVRQPPGKGLEWVALISYDGSVKKYADSVKGRITVSGDNSRNTLHLQINSLRADDTAVYYCVRGGVSGPNSFDLWGHGTMVTVSS
VL: DVVLTQSPLSLPVTLGQPASISCRSSQSLEYSVGNTYVNWFQQRPGQSPRRLIYKVSNRDSGVPDRFSGSGSGTDFTLQISRVEADDVGIYYCMQGTHWPVTFGQGTKVEIK
B8: antibody 541 (antibody, V domains shown)
VH: QVQLVQSGAEVKKPGASVKVSCKASGYTFTSYYVHWVRQAPGQSLEWMGVISPSTGSTTYAQNFQGRVTMTRDTSTTTVYMELSSLRSEDTAVYYCARDDYYDSTRYFDLWGRGTLVTVSS
VL: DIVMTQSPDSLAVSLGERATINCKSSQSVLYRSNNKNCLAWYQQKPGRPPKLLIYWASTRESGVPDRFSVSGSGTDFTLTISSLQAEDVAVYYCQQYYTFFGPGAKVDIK
B9: antibody 560 (antibody, V domains shown)
VH: EVQLVESGGGLVQPGGSLRLSCAASGFTISSNYMSWVRQAPGKGLEWVSVIYSGGSTYYADSVKGRFTISRDNSKNTLYLQMNSLRAEDTAVYYCAREEGEWEKDYYGMDVWGQGTTVTVSS
VL: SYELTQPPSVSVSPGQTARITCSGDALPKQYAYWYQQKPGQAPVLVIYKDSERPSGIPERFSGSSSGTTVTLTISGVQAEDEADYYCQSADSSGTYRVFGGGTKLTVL
B10: antibody 527 (antibody, V domains shown)
VH: QLQLQESGPGLVKPSETLSLTCTVSGGSISSSSYYWGWIRQPPGKGLEWIGSIYYSGSTYYNPSLKSRVTISVDTSKNQFSLKLSSVTAADTAMYYCASHVVVIASSYWCFDLWGRGTLVTVSS
VL: QSALTQPASVSGSPGQSITISCTGTSSDVGGYNYVSWYQQHPGKAPKLMIYDVSNRPSGVSNRFSGSKSGNTASLTISGLQAEDEADYYCSSYTSISTWVFGGGTKLTVL
B11: antibody 556 (antibody, V domains shown)
VH: QVQLVESGGGVVQPGRSLRLSCAASGFTFSSYAMHWVRQAPGKGLEWVAVISYDGSDKYYADSVKGRVTISRDNSKNTLYLQMNSLRVEDTAVFYCAKDDCSGGVCFPDYWGQGTLVTVSS
VL: QSALTQPASVSGSPGQSITISCTGTSSDVGGYNYVSWYQQHPGKAPKLMIYEVSIRPSGVSNRFSGSKSGNTASLTISGLQAEDEAAYYCSSYTSSSTLVFGGGTKLTVL
B12: antibody 546 (antibody, V domains shown)
VH: QVQLVESGGGVVQPGRSLRLSCAASGFTFSSYGMHWVRQAPGKGLEWVAVIWYDGSNKYYADSVKGRFTISRDNSKNTLYLQMNSLRAEDTAVYYCARNCGGDCVAGDGFDYWGQGTLVTVSS
VL: DIQMTQSPSSLSASVGDRVTITCRASQSISSYLNWYQQKPGKAPNLLIYAASSLQSGVPSRFSGSGSGTDFTLTISSLQPEDFATYYCQQSYSALTWTFGQGTKVEIK
B13: anti-SARS-CoV-2 antibody 1037 (antibody, V domains shown)
VH: QITLKESGPTLVKPTQTLTLTCTFSGFSLSTSGVGVGWIRQPPGKALEWLALIYWDDDKRYSPSLKSRLTITKDTSKNQVVLTMTNMDPVDTATYYCAHHTITRINDYWGQGTLVTVSS
VL: QSALTQPASVSGSPGQSITISCTATSSDVGAYNYVSWYQQHPGKAPKLMIYDVSKRPSGVSNRFSGSKSGNTASLTISGLQAEDEADYYCSSYTSSSTVFGGGTKLTVL
B14: anti-SARS-CoV-2 antibody 1012 (antibody, V domains shown)
VH: EVQVVESGGGLVQPGGSRRLSCTASGFTLRNYWMSWVRQAPGKGLEWVANIKQDGSEKYYVDSVKGRFTISRDNAKNSLYLQMDSLRAEDTAVYYCARGGRYCPGGSCPRWGRGTLVTVSS
VL: DIQMTQSPSSLSASVGDRVTITCQASQDISNFLNWYQLKPGEAPTLLIFDASKLETGVPSRFSGTGFGTDFTFTISSLQPEDTATYYCQQYDDLTSITLGQGTRLEIK
B15: anti-SARS-CoV-2 antibody 989 (antibody, V domains shown)
VH: QVQLQESGPGLVKPSQTLSLTCTVSGGSISSGSYYWSWIRQPAGKGLEWIGRIYTSGSTNYNPSLKSRVTMSVDTSKNHFSLKLRSVTAADTAVYYCARGIAVAGDDDYYYYYGLDVWGQGTTVTVSS
VL: SYELTQPPSVSVSPGQTARITCSGDALPKQYAYWYQQKPGQAPVMVINKDSERPSGIPERFSGSSSGTTVTLTISGVQAEDEADYYCHSADSSGTYWVFGGGTKLTVL
B16: anti-SARS-CoV-2 antibody 966 (antibody, V domains shown)
VH: QVQLVESGGGVVQPGRSLRLSCAASEFTFSSYGMHWVRQAPGKGLEWVAVISHDGSNEYYADSVKGRFTISRDNSKNTLYLQMNSLRAEDTAVYYCAKWRGPHRGYYDRSGYYLGSSRDDYWGQGTLVTVSS
VL: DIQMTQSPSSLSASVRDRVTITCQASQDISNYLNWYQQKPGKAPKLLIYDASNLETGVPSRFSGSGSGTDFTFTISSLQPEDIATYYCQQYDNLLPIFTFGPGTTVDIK
B17: anti-SARS-CoV-2 antibody 933 (antibody, V domains shown)
VH: QVQLVQSGAEVKKPGASVKVSCKASGYTFTTYDINWVRQATGQGLEWMGWMNPNSGYTDSAQKFQGRVTMTRNTSISTAYMELSSLRSEDTAVYYCASGRGVKTYYFDYWGQGTLVTVSS
VL: SYELTQPPSVSVSPGQTASITCSGDKLGDKSACWYQQKPGQSPVLVICQDTKRPSGIPERFSGSNSGNTATLTISGTQAMDEADYYCQAWDSRTVVFGGGTKLTVL
B18: anti-SARS-CoV-2 antibody 1000 (antibody, V domains shown)
VH: EVQLVESGGGLVQPGRSLRLSCAASGFTFDDYAMHWVRQAPGEGLEWVSGISWNSGSIGYADSVKGRFTISRDNAKNSLYLQMNSLRAEDTALYYCAKDTRFSFGTIAAAVSGYGMDVWGQGTTVTVSS
VL: QSALTQPASVSGSPGQSITISCTGTSSDVGIFNLVSWYQQHPGKAPKLMIYEVTKRPSGVSNRFSGSKSGNTASLTISGLQAEDEADYYCCSYAGSYVFGTGTKVTVL
B19: anti-SARS-CoV-2 antibody 1015 (antibody, V domains shown)
VH: EVQLVESGGGLVQPGGSLRLSCAASGFTFSSYWMHWVRQAPGKGLVWVSHINSDGSSTSYADSVKGRFTISRDNAKNTLYLQMNSLRAEDTAVYYCARGLRYFDLDVWGQGTTVTVSS
VL: QSVLTQPPSVSEAPRQRVTISCSGSSSNIGNNAVNWYQQLPGKAPKLLIFYDDLLPSGVSDRFSGSKSGTSASLAISGLQSEDEADYYCAAWDDSLNGGVFGGGTKLTVL
B20: anti-SARS-CoV-2 antibody 1009 (antibody, V domains shown)
VH: QLQLQESGPGLVKPSQTLSLTCTVSGGSISSGSYYWSWIRQPAGKGLEWIGSIYTSGSTYYNPSLKSRVTISVDTSKNQFSLKLSSVTAADTAVYYCARKNWLQGSFDYWGQGTLVIVSS
VL: NFMLTQPHSVSESPGKTVTISCTRSSGSIANNYVQWYQQRPGSAPTTVIYEDNQRPSGVPDRFSGSIDSSSNSASLTISGLKTEDEADYYCQSYDTSNHGVFGGGTKLTVL
B21: anti-SARS-CoV-2 antibody 1075 (antibody, V domains shown)
VH: QVQLVQSGAEVKKPGASVKVSCKVSGYTLIELSMHWVRQAPGKGLEWMGGFDPEDGETIYAQKFQGRVTMTEDTSTDTAYMELSSLRSEDTAVYYCATEWAYYGSGSYLGYWGQGTLVTVSS
VL: EIVMTQSPATLSVSPGERATLSCRASQSVSSNLAWFQQKPGQAPRLLIYGASTRVTVIPARFSGSGSGTEFTLTISSLQSEDFAVYYCQQYNNWPRTFGQGTKVEIK
B22: anti-SARS-CoV-2 antibody 923 (antibody, V domains shown)
VH: EVQLVESGGGVVRPGGSLRLSCAASGFIFDDYDMTWVRQAPGKGLEWVSGISWNGGNTGYADSVKGRFTISRDNAKNSLYLQMNSLRAEDTALYHCAVIMSPIPRYSGYDWAGGAFDIWGQGTMVTVSS
VL: SSELTQDPAVSVALGQTVRITCQGDSLRSYYASWYQQKPGQVPILVIYDKNNRPSGIPDRFSGSSSGNTASLTITGAQAEDEADYYCNSRDSSGNAVVFGGGTKLTVL
B23: anti-SARS-CoV-2 antibody 1027 (antibody, V domains shown)
VH: EVQLVESGGGLVQPGGSLRLSCAASGFTVSSNYMSWVRQAPGKGLEWVSIIYSGGSTFYADSVKGRFTISRDSSKNTLYLQMSSLRAEDTAVYYCARDLDYYGMDVWGQGTTVTVSS
VL: DIQLTQSPSFLSAPVGDRVTITCRASQGISSYLAWYQQKPGKAPKLLIYGASTLQSGVPSRFSGSGSGTEFTLTISSLQPEDFATYYCQQLNSYQRFTFGPGTKVEIK

One experiment deals with SARS-CoV-2 full length spike protein, V483A mutant (SARS-CoV-2, UniProt P0DTC2 14-1273).
As for B1, the “median fold over isotype” value is 4.86 fold over isotype.

On to B2, for which the “median fold over isotype” value is 3.74 fold over isotype.

For B3, the “median fold over isotype” value was 10.1 fold over isotype.

For B4, the “median fold over isotype” value was 8.92 fold over isotype.

Consider B5, for which the “median fold over isotype” value turned out to be 2.59 fold over isotype.

For the molecule B6, the “median fold over isotype” value is 14.3 fold over isotype.

On to B7, for which the “median fold over isotype” value is 11.4 fold over isotype.

For B8, the “median fold over isotype” value was determined as 1.6 fold over isotype.

As to B9, the “median fold over isotype” value came out at 14.8 fold over isotype.

Take B10: the “median fold over isotype” value came out at 7.97 fold over isotype.

Turning to B11, the “median fold over isotype” value was 7.35 fold over isotype.

In the case of B12, the “median fold over isotype” value is 18.9 fold over isotype.

For the next experiment, the target named is SARS-CoV-2 spike protein with D614G mutation (SARS-CoV-2, UniProt P0DTC2 14-1208).
Take B13: the dissociation constant Kd is 0.023 nM.

B14 displayed a Kd of 0.027 nM.

B15: the dissociation constant (Kd) came to 0.039 nM.

Regarding B16, binding was characterised by a dissociation constant (Kd) of 1.3 nM. This Kd lies about 33-fold higher than the previous one.

With B17, the Kd was determined as 29 nM.

B18 yielded a Kd of 0.016 nM. This Kd lies about 1800-fold lower than the previous one.

Take B19: the dissociation constant (Kd) is 0.02 nM.

On to B20, for which the Kd came to 0.034 nM.

Molecule B21 yielded a Kd of 0.023 nM.

As to B22, binding was characterised by a dissociation constant (Kd) of 0.022 nM.

The molecule B23 came in with a Kd of 0.043 nM.

For orientation: Kd means the free concentration of one partner at which half of the binding sites on the other are occupied at equilibrium, for simple one-to-one binding. Low values mean higher affinity, high ones lower affinity.
